This is an account of results in a protein production outcome set (Wang et al. 2014).

The data set in a line: label from the status in PepcDB records.

“SKIYDNKNQLIADLGSERRVNAQANDIPTDLVKAIVSIEDHRFFDHRGIDTIRILGAFLRNLQSNSLQGGSTLTQQLIKLTYFSTSTSDQTISRKAQEAWLAIQLEQKATKQEILTYYINKVYMSNGNYGMQTAAQNYYGKDLNNLSLPQLALLAGMPQAPNQYDPYSHP”: the protein production entry is “failed”.
Consider “SKKPYIVTIACTKGGSAKSTNAANIGAFCADHGLRTLLIDTDTQPTLSSYYSLAKTAPGGIYEFLLQRDVEPSHIVSQTSIKNLDLIQSNDPSNNVSHMLRNAPDGSIRFSHLIKSINNYDVIVIDTRGTRDITVDMSVLAADILFCPILPQILSAKEFIRGTIGMYQDLQTFESFGFKLPPLKAIANGVDNTNDVKFVMQKLHTLFANTFDES”, for which the protein production entry was “failed”.
For the sequence “SKLNERSVAHYALSDSPADHMGFLRTWGGPGTPPTPSGTGRRCWFVLKGNLLFSFESREGRAPLSLVVLEGCTVELAEAPVPEEFAFAICFDAPGVRPHLLAAEGPAAQEAWVKVLSRASFGYMRLVVRELESQLQDARQSLALQRRSSWKSVASRCKPQAPNHRAAGLENGHCLSKDSSPVGLVEEAGSRSAGWGLAEWELQGPASLLLGKGQSPVSPETSCFSTLHDWYGQEIVELRQCWQKRAQGSHSKCEEQDRP”, the protein production entry is on record as “not failed”.
Take “SKYQLGMLHFSTQYDLLHNHLTVRVIEARDLPPPISHDGSRQDMAHSNPYVKICLLPDQKNSKQTGVKRKTQKPVFEERYTFEIPFLEAQRRTLLLTVVDFDKFSRHCVIGKVSVPLCEVDLVKGGHWWKALIP”: the protein production result was “not failed”.
Regarding “SLANIREIAKRAGISIATVSRHLNNTGYVSEDAREKIQKVVDELNYTPNALARAMFTKNSKTIGLMVPNISNPFFNQMASVIEEYAKNKGYTLFLCNTDDDKEKEKTYLEVLQSHRVAGIIASRSQCEDEYANIDIPVVAFENHILDNIITISSDNYNGGRMAFDHLYEKGCRKILHIKGPEVFEATELRYKGFLDGARAKDLEIDFIEFQHDFQVKMLEEDINSMKDIVNYDGIFVFNDIAAATVMRALKKRGVSIPQEVQIIGFDNSFIGELLYPSLTTINQPIEALAYTIIELLIKIINGEGVLIEDYIMEVKLIERETTISLKDEG”, the protein production entry is on record as “not failed”.
Regarding “SLDTEKDCIKAVAAKDGITVIKVKSSNKLLSWHFMRKLFEIFEFYQEPVDMVATSEVGVSLTIDNDKNLPDIVRALSDIGDVTVDKDMVIICIVGDMEWDNVGFEARIINALKGVPVRMISYGGSNYNVSVLVKAEDKKKALIALSNKLFNSRATKA”, the protein production result is recorded as “not failed”.
In the case of “SLKKIVESTTFPRTKQSITEDLKALGLKKGMTVLVHSSLSSIGWVNGGAVAVIQALIDVVTEEGTIVMPSQSVELSDPKEWGNPPVPEEWWDIIRESMPAYNSNYTPTTRGMGQIVELFRSYPEVKRSNHPNYSFVAWGKHKNKILNQHPLEFGLGEQSPLGKLYIRESYVLLLGADFDSSTCFHLAEYRIPYQKIINRGAPIIVEGKRVWKEYKELEFREELFQEVGQAFEAEHNMKVGKVGSANCRLFSLTEAVDFAEKWFINNDSKNIKK”, the protein production result is “not failed”.
“SLMAGSFCWRMLGLVSKVGNRARCFSSVAASEEELLDFSGSELQFNSCSLHLSLHPFFNFLLGIHSCFVCKESKTDVKRCVVTQCGKFYHEACVKKYPLTVFESRGFRCPLHSCVSCHASNPSNPRPSKGKMMRCVRCPVAYHSGDACLAAGCSVIASNSIICTAHFTARKGKRHHAHVNVSWCFVCSKGGSLLCCESCPAAFHPDCLNIEMPDGSWFCNDCRAGKKLHFQDIIWVKLGNYRWWPAEVCHPKNVPPNIQKMKHEIGEFPVFFFGSKDYYWTHQARVFPYMEGDRGSRYQGVRGIGRVFKNALQEAEARFREIKLQREARETQESERKPPPYKHIKVNKPYGKVQIYTADISEIPKCNCKPTDENPCGFDSECLNRMLMFECHPQVCPAGEFCQNQCFTKRQYPETKIIKTDGKGWGLVAKRDIRKGEFVNEYVGELIDEEECMARIKHAHENDITHFYMLTIDKDRIIDAGPKGNYSRFMNHSCQPNCETLKWTVNGDTRVGLFAVCDIPAGTELTFNYNLDCLGNEKTVCRCGASNCSGFLGDRPKTSTTLSSEEKGKKTKKKTRRRRAKGEGKRQSEDECFRCGDGGQLVLCDRKFCTKAYHLSCLGLGKRPFGKWECPWHHCDVCGKPSTSFCHLCPNSFCKEHQDGTAFSCTPDGRSYCCEHDLGAASVRSTKTEKPPPEPGKPKGKRRRRRGWRRVTEGK”: the protein production entry is listed as “not failed”.
In the case of “SLPIASTATQMGSNKTRIFARQPAKAPPPLAWLSRPRDPRATAIAAAGQQSSRRVSKRELESHGSATDAWTAIHGVVYDITAYFRFHPGGAEILFIEAAGKDSTAVFDEMHPWVNVAWLLKDYRIGLYAPESEDDGGDDDDDDRTMTSPE”, the protein production entry was “not failed”.
Regarding “SLQCIFLISDSGEVMLEKQLTGHRVDRSICAWFWDQYISQGDSFKALPVIASPTHYLFQIVRDGITFLACSQVEMPPLMAIEFLCRVADVLSEYLGGLNEDLIKDNFIIVYELLDEMIDNGFPLTTEPSILKEMIAPPNLVSKMLSVVTGNASNVSDTLPSGAGSCVPWRPTDPKYSSNEVYVDLVEEMDAIVNRDGELVKCEIYGEVQMNSQLTGFPDLTLSFANPSILEDMRFHPCVRYRPWESHQVLSFVPPDGEFKLMSYRVKKLKNTPVYVKPQITSDSGTCRISVLVGIRSDPGKTIESITLSFQLPHCVSSADLSSNHGTVTILSNKTCTWTIGRIPKDKTPCLSGTLALEPGLERLHVFPTFKLGFKIMGIALSGLRIEKLDLQTIPPRLYKGFRAQTRTGEFDVRL”, the protein production result is “failed”.
With “SLRADKPKCSIQNFFIPALGKDPNSRDNTTLNFMVRCDNPNKDKGIYYDDVHLNFSTINTTKINSSALVLVGNYTVPKFYQGHKKKAKKWGQVKPLNNQTVLRAVLPNGSAVFRLDLKTQVRFKIVFWKTKRYGVEVGADVEVNGDGVKAQKKGIKMKKS”, the protein production result is “not failed”.
Take “SLRREMQEILPGLFLGPYSSAMKSKLPVLQKHGITHIICIRQNIEANFIKPNFQQLFRYLVLDIADNPVENIIRFFPMTKEFIDGSLQMGGKVLVHGNAGISRSAAFVIAYIMETFGMKYRDAFAYVQERRFCINPNAGFVHQLQEYEAIYLAK”: the protein production result was “not failed”.
Turning to “SLRSMVSDSVDEIVDGVSKTTAEVINGRKSIAQYATSLIENNPEPDNVRTIISQPLIKNTFLLVGFGLEKDGSNINNDPSWNPGPTWDPRVRPWYKDAKNAGKLVITAPYADSASGEILVSVATPVKDSATGQFLGSIFYDVSLAELAELVNEVKLFDAGYVFIVSEDGTTIAHPKKEFNGKPMSEFLGESKINVDTHQVIINGKPYAVSFSDVEGEDWYVGVVIDEEIAYAALDELRRS”, the protein production entry was “not failed”.
Take “SLSPAELHADSIVIDGLIIAKWNRELFEDMRKGGLTAANCTVSVWEGFQATVNNIVASNKLIRDNSDLVIPVRSTADIRKAKEQGKTGILYGFQNAHAFEDQIGYVEVFKQLGVGIVQMCYNTQNLVGTGCYERDGGLSGFGREIVAEMNRVGIMCDLSHVGSKTSEEVILESKKPVCYSHCLPSGLKEHPRNKSDEELKFIADHGGFVGVTMFAPFLKKGIDSTIDDYAEAIEYVMNIVGEDAIGIGTDFTQGHGHDFFEWLTHDKGYARRLTNFGKIVNPLGIRTVGEFPNLTETLLKRGMPERVVRKVMGENWVRVLRDVWGE”: the protein production result was “not failed”.
As to “SLSRRKPNPVIVADIRQAEGALAEIATIDRKVGEIEAQMNEAIDAAKARASQKSAPLLARRKELEDGVATFATLNKTEMFKDRKSLDLGFGTIGFRLSTQIVQMSKITKDMTLERLRQFGISEGIRIKEDVNKEAMQGWPDERLEMVGLKRRTTDAFYIEINREEVADTAA”, the protein production entry is given as “not failed”.
In the case of “SLSTVNIKSTGVTSTELAEIGEHQSEMPGVKVGTSWTRSYPNGTDLSSVLGTVTTEKQGLPSDSIKTLLAEGYSRDDSVGQSQLEKQYENVLRGTKSQTEVKTQDGVIQKEIKKYGGQKGDNVQLTIN”, the protein production result is “failed”.
Consider “SNSIGLRQSVSDKGIEIVNLLAPKVEMLGFDLLGAEYLLVPSGAILRLYIDIPFAMQPECMVSIDDCERVSREVSAYLDLEEPISGNYTLEVSSP”, for which the protein production result is on record as “failed”.
The value for “SPESLYLLWGPQMQFFFNDAYRPVLGPRLANALGQTIQTLWADAWPDVQPMVEQAFLGYSCRHEDLPVNMQRYPGEELTWWSFSMSPVYDEDDEQVLGVLCHTVETTDRVLLARHARQTEAH” was “failed”; that for “SPFIRANTAWLGHLEFAYDLVRFEKPEILVELGTHMGASFFSFCQGVKDGGLATKCFAVDTWTGDGHTGPYGEGVFHIVDKVVKTSYPNIGNLIKSTFDEAVDQFQDGTINLLHIDGYHTYEAVSHDYKTWLPKLADNGIVLFHDIEVKDRNFGVYKFWDEVKAKYPHFQFQHSYGLGVLFPKGCSDRFKEILKNKEEIQDMYK” was “failed”; that for “SRSKQKSRRRCFQCQTKLELVQQELGSCRCGYVFCMLHRLPEQHDCTFDHMGRG” was “not failed”.
As to “SSAEAGGGIRKRHRTKFTAEQKERMLALAERIGWRIQRQDDEVIQRFCQETGVPRQVLKVWLHNNKH”, the protein production result is recorded as “not failed”.
On to “SSDASKVTSKGAGLSKAFVGQKSSFLVDCSKAGSNMLLIGVHGPTTPCEEVSMKHVGNQQYNVTYVVKERGDYVLAVKWGEEHIPGSPFHVTVP”, for which the protein production entry was “not failed”.
With “SSGNHIFKGRAAGIAVNENGKGLITENVIRENQWGGVDIRRGGIPVLRSNLICFGYSDGVVVGDEGKGLIEGNTIYANKGCGVWMMSSSLPHVTSNHVSYNGLYGVAVFSQKDGSSELPRGHRAQENFSEDGDAILWETELEKEDDPLRRPITIALVESNSINHNGASGLYVQSSEALHVITNVIHANGDRGITVAQSSQPTRVANNSISCNRQSGVKVEAQCKVELRGNGIYDNRGHGIITKGDSTIVIENDIIGNRGSGLQLLPRSDTKVIKNRIHSFRAYGIAVRGRAKALVQENIIFQGKTSKTIFQQISNNRECIMQNNKFLVFKKKSDTWR”, the protein production result is reported as “not failed”.
As for “SSISRANKKKPSMPNVSNDLSQKLYATMEKHKEVFFVIHLHAGPVINTLPPIVDPDPLLSCDLMDGRDAFLTLARDKHWEFSSLRRSKWSTLCMLVELHTQ”, the entry is “failed”.
In the case of “SSLLDGLASSPRAPLQSSKARMKKLPKKSQNEKYRLKYLRLRKAAKATVFENAAICDEIARLEEKFLKAKEERRYLLKKLLQLQALTEGEVQAAAPSHSSSLPLTYGVASSVGTIQGAGPISGPSTGAEEPFGKKTKKEKKEKGKENNKLEVLKKTCKKKKMAGGARKLVQPIALDPSGRPVFPIGLGGLTVYSLGEIITDRPGFHDESAIYPVGYCSTRIYASMKCPDQKCLYTCQIKDGGVQPQFEIVPEDDPQNAIVSSSADACHAELLRTISTTMGKLMPNLLPAGADFFGFSHPAIHNLIQSCPGARKCINYQWVKFDVCKPGDGQLPEGLPENDAAMSFEAFQRQIFDEDQNDPLLPGSLDLPELQPAAFVSSYQPMYLTHEPLVDTHLQHLKSPSQGSPIQSSD”, the protein production result is on record as “not failed”.
As to “SSQGFIFNLSRPMFQDRRVRQALSLLWDFEWTNRQMMRNMYIRQDSYFSNSELAASQLPTPAELKILEPLRGTVPKEVFDTVFKTPKTDGTGLIRDKQLQALALMKEAGWTPKGDELVNAQGEPFSFTFLNAQSGFERMLLPYKRTLAQIGIHFDIRRIDSAQYLNRVMARDYDMIVTGYPVSTSPGAELYNSFGSKVAMDPGSSNYMALQDPAVDTLIAGLVKADNKQTMTDYAHCLDRVLQWNYYWIPNYYPP”, the protein production result was “failed”.
The value for “SSQRYMQILQIMPEAIFIHDNGKCNFINDKAIKLLEVKDVKDIIGKNIVDFIHEDYKELAQARIDKTMKTGMPCDFIEERLVTAMGKKIIIEAATTTFSHNNGTFITIIRDMT” was “failed”.
